In patent US20250163117A1 (CURE GENETICS, published 2025):
Where two headings read alike, the source gives them in different places.

T1: human high-affinity IL-2 receptor IL-2Rαβγ on cells (human, UniProt P01589 22-272; P14784 27-551; P31785 23-369)
T1 sequence (looked up) 1: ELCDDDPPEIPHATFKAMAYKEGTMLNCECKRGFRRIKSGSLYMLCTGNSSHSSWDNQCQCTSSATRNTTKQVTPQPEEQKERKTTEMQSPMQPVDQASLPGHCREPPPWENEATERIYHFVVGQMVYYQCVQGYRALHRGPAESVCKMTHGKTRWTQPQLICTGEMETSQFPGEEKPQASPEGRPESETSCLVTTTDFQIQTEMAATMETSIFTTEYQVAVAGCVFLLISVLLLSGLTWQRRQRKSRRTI
T1 sequence (looked up) 2: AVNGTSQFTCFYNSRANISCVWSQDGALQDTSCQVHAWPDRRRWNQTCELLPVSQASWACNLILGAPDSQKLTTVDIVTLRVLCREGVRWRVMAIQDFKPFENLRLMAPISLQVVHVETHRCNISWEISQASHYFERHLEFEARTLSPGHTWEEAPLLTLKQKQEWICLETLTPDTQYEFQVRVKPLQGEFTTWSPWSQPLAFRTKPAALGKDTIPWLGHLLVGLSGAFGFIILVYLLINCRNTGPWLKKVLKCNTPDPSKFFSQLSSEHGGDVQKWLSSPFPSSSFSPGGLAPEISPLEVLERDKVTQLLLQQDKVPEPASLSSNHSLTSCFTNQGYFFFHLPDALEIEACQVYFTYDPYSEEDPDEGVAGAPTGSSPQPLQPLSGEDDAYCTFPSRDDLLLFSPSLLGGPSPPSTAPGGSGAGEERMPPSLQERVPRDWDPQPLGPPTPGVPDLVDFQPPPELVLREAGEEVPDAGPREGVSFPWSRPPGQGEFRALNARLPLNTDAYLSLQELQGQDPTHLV
T1 sequence (looked up) 3: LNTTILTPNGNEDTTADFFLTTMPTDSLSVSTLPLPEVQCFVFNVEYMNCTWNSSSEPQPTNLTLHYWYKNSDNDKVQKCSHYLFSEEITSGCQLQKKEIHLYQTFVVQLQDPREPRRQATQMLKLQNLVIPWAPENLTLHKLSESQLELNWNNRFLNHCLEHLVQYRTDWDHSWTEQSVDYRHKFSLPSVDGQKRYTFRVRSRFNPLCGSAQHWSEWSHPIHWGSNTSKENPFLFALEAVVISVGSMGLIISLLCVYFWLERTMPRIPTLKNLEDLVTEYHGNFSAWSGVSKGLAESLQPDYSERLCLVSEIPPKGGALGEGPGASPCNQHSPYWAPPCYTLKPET

T2: human intermediate-affinity IL-2 receptor IL-2Rβγ on cells (human, UniProt P14784 27-551; P31785 23-369)
T2 sequence (looked up) 1: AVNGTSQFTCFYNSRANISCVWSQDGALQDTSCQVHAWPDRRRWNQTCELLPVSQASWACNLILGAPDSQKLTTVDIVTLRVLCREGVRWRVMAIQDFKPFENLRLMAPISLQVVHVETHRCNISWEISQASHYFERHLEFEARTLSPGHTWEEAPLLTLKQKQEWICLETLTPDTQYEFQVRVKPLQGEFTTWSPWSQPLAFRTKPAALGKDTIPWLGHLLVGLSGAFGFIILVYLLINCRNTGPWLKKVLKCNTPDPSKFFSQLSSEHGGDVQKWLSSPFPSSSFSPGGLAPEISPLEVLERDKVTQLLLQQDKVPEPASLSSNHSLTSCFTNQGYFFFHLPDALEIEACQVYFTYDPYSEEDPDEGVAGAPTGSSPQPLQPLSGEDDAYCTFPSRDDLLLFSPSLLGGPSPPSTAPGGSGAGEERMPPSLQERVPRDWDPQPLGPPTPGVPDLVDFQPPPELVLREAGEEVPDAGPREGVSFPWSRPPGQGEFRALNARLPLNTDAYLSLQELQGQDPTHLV
T2 sequence (looked up) 2: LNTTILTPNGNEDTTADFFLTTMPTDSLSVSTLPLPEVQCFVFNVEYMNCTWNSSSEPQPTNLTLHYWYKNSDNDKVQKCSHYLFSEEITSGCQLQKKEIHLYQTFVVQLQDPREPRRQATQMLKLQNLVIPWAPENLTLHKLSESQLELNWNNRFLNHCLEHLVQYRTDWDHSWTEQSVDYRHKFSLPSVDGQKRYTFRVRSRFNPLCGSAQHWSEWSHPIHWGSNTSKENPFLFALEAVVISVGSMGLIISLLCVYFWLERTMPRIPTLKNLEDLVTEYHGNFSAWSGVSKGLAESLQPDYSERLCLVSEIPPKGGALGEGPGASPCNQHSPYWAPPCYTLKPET

T3: mouse intermediate-affinity IL-2 receptor IL-2Rβγ on cells (mouse, UniProt P16297 27-539; P34902 23-369)
T3 sequence (looked up) 1: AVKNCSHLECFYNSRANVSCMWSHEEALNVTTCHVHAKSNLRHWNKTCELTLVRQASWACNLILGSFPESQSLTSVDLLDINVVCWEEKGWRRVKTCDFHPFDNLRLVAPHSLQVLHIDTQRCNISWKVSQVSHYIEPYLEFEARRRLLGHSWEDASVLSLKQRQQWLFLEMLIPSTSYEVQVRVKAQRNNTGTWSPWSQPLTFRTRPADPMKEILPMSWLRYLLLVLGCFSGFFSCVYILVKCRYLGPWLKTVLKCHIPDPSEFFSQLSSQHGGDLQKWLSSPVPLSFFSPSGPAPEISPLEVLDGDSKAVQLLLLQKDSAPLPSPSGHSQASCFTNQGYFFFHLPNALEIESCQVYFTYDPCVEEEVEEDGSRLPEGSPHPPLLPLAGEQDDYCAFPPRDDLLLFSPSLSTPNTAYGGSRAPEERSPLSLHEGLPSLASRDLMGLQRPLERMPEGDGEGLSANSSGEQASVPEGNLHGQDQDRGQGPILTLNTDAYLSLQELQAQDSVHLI
T3 sequence (looked up) 2: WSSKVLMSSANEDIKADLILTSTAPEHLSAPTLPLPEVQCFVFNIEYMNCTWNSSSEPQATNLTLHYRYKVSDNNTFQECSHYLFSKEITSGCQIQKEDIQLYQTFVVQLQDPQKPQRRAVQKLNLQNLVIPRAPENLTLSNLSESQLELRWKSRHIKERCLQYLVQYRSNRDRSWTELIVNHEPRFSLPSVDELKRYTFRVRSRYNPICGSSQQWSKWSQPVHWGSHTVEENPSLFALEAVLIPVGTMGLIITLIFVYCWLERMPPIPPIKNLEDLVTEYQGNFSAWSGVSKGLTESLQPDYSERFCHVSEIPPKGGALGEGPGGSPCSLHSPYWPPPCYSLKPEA

T4: mouse high-affinity IL-2 receptor IL-2Rαβγ on cells (mouse, UniProt P01590 22-268; P16297 27-539; P34902 23-369)
T4 sequence (looked up) 1: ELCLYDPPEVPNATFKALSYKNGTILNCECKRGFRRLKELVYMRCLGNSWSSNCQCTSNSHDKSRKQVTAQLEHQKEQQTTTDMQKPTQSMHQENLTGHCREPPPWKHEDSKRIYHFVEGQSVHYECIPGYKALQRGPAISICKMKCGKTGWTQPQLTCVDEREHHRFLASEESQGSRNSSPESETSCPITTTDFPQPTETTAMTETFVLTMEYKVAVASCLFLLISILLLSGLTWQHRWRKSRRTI
T4 sequence (looked up) 2: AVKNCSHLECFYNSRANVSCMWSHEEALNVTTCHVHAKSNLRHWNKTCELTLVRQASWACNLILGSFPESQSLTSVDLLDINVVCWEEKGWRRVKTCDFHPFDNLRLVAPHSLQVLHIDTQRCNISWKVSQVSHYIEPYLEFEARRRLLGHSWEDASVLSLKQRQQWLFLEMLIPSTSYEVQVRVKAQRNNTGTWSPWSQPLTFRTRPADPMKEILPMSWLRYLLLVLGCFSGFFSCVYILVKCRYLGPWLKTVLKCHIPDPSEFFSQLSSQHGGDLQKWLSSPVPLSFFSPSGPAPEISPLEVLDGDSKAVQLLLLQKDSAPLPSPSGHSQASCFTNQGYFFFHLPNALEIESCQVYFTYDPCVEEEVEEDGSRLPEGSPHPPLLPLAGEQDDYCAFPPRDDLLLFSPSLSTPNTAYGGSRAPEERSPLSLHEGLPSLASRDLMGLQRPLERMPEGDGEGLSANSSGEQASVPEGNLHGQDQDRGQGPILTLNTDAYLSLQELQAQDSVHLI
T4 sequence (looked up) 3: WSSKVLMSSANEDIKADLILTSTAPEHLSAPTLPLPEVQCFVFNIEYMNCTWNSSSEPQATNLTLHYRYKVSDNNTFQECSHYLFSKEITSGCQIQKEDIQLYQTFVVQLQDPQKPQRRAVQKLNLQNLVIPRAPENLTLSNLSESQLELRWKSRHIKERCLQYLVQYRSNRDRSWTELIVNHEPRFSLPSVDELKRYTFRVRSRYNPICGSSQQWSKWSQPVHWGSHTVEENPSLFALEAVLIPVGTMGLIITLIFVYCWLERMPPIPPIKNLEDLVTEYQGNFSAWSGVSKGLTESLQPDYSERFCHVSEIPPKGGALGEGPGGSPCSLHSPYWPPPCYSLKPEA


Assays:
Assay in all cases: cell-based or functional assay
[1] = biological target: T1, human high-affinity IL-2 receptor …
[2] = biological target: T2, human intermediate-affinity IL-2 …
[3] = biological target: T3, mouse intermediate-affinity IL-2 …
[4] = biological target: T4, mouse high-affinity IL-2 receptor …
[5] = biological target: T2, human intermediate-affinity IL-2 …; remark: listed apart in the source
[6] = biological target: T3, mouse intermediate-affinity IL-2 …; remark: listed apart in the source
[7] = biological target: T1, human high-affinity IL-2 receptor …; remark: listed apart in the source
[8] = biological target: T2, human intermediate-affinity IL-2 …; remark: listed apart in the source
[9] = biological target: T4, mouse high-affinity IL-2 receptor …; remark: listed apart in the source
[10] = biological target: T2, human intermediate-affinity IL-2 …; remark: listed apart in the source

| % pSTAT5 in human PBMC at Low IL-2v concentration (2.5 nM per paragraph 254); western blot, pSTAT5/STAT5 normalised to 001 High [1] [%] | % pSTAT5 in human PBMC at High IL-2v concentration (25 nM per paragraph 254); western blot, pSTAT5/STAT5 normalised to 001 High [2] [%] | % pSTAT5 in mouse splenocytes at High IL-2v concentration (25 nM per paragraph 254); western blot, pSTAT5/STAT5 normalised to 001 High [3] [%] | % pSTAT5 in mouse splenocytes at Low IL-2v concentration (2.5 nM per paragraph 254); western blot, pSTAT5/STAT5 normalised to 001 High [4] [%] | EC50 (read off the curve): STAT5 phosphorylation in HH cells [5] [nM] | Binder | also measured |
| --- | --- | --- | --- | --- | --- | --- |
| 10.7 | 12.1 | 20.5 | 13.8 |  | CP-trIL-2 062 (ligand) TIVEFLNRWITFSQSIISTLTGGGGSGGGGSELKHLQSLEEELKDLEEVLNLAQSKNFHLRPRDLISNINVIVLELKGSETTPTSSSTKKTQLQLEHLLLDLQMILNGIN |  |
|  |  |  |  | ~30 | CP-trIL-2 021 (ligand) LRPRDLISNINVIVLELKGSETTELKHLQSLEEELKPLEEVLNLAQSKNFHTIVEFLNRWITFSQSIISTLTGGGGSGGGGSPTSSSTKKTQLQLEHLLLDLQMILNGIN |  |
| 9.1 | 38.1 | 68.5 | 24.8 | ~20 | CP-trIL-2 022 (ligand) LRPRDLISNINVIVLELKGSETTELKHLQSLEEELKDLEEVLNLAQSKNFHTIVEFLNRWITFSQSIISTLTGGGGSGGGGSPTSSSTKKTQLQLEHLLLDLQMILNGIN |  |
| 6.5 | 41.4 | 91.3 | 30.7 |  | CP-trIL-2 072 (ligand) ELKHLQSLEEELKDLEEVLNLAQSKNFHLRPRDLISNINVIVLELKGSETTPTSSSTKKTQLQLEHLLLDLQMILNGINNYKNPTIVEFLNRWITFSQSIISTLT | EC50 of STAT5 activation, mouse CD8 T cells (flow cytometry) [6]: 110 nM; EC50 of STAT5 activation, mouse NK cells (flow cytometry) [6]: 113 nM; EC50 of STAT5 activation, human Tregs (flow cytometry) [7]: 22 nM; EC50 of STAT5 activation, human CD8 T cells (flow cytometry) [8]: 45.7 nM; EC50 of STAT5 activation, human NK cells (flow cytometry) [8]: 15.6 nM; EC50 of STAT5 activation, mouse Tregs (flow cytometry) [9]: 129 nM; EC50 (read off the curve): STAT5 phosphorylation in HH cells [10]: ~20 nM |
|  |  |  |  |  | CP-trIL-2 073 (ligand) ELKHLQSLEEELKDLEEVLNLAQSKNFHLRPRDLISNINVIVLELKGSETTPTSSSTKKTQLQLEHLLLDLQMILNGINNYKNPTIVEKLNRWITKSQSIISTLT | EC50 (read off the curve): STAT5 phosphorylation in HH cells [10]: ~10 nM |
| 6.2 | 9.3 | 16.1 | 13.9 |  | CP-trIL-2 042 (ligand) TIVEFLNRWITFSQSIISTLTGGGGSGGGGSPTSSSTKKTQLQLEHLLLDLQMILNGINNYKNPLRPRDLISNINVIVLELKGSETTELKHLQSLEEELKDLEEVLN |  |
| 10.4 | 7.6 | 18.9 | 11.5 |  | CP-trIL-2 032 (ligand) ELKHLQSLEEELKDLEEVLNLAQSKNFHTIVEFLNRWITFSQSIISTLTGGGGSGGGGSPTSSSTKKTQLQLEHLLLDLQMILNGINNYKNPLRPRDLISNINVIVLELKG |  |
| 15.6 | 45.8 | 25.2 | 16.7 |  | CP-trIL-2 082 (ligand) LRPRDLISNINVIVLELKGSETTPTSSSTKKTQLQLEHLLLDLQMILNGINNYKNPTIVEFLNRWITFSQSIISTLTGGGGSGGGGSELKHLQSLEEELKDLEEVLN |  |
| 9.5 | 18.2 | 21.8 | 14.6 |  | CP-trIL-2 051 (ligand) PTSSSTKKTQLQLEHLLLDLQMILNGINNYKNPTIVEFLNRWITFSQSIISTLTGGGGSGGGGSELKHLQSLEEELKPLEEVLNLAQSKNFHLRPRDLISNINVIVLELKG |  |
|  |  |  |  | ~6 | CP-trIL-2 011 (ligand) PTSSSTKKTQLQLEHLLLDLQMILNGINNYKNPLRPRDLISNINVIVLELKGSETTELKHLQSLEEELKPLEEVLNLAQSKNFHTIVEFLNRWITFSQSIISTLT |  |
